US20240270846A1 (published 2024)
Where a chain is given by its changes, count along the chain named. Names may count otherwise.

B1: CE115HA000 N31Q one-arm antibody (antibody, human IgG1, kappa, L234A L235A, N297A, name in Kabat numbering)
heavy: QVQLVESGGGVVQPGRSLRLSCAASGFTFSQAWMHWVRQAPGKGLEWVAQIKAKSNNYATYYAESVKGRFTISRDDSKNSLYLQMNSLKTEDTAVYYCRYVHYGAYYGVDAWGQGTTVTVSSASTKGPSVFPLAPSSKSTSGGTAALGCLVKDYFPEPVTVSWNSGALTSGVHTFPAVLQSSGLYSLSSVVTVPSSSLGTQTYICNVNHKPSNTKVDKKVEPKSCDKTHTCPPCPAPEAAGGPSVFLFPPKPKDTLMISRTPEVTCVVVDVSHEDPEVKFNWYVDGVEVHNAKTKPREEQYASTYRVVSVLTVLHQDWLNGKEYKCKVSNKALPAPIEKTISKAKGQPREPQVYTLPPSRCELTKNQVSLSCAVKGFYPSDIAVEWESNGQPENNYKTTPPVLDSDGSFFLVSKLTVDKSRWQQGNVFSCSVMHEALHNHYTQKSLSLSPDYKDDDDK
chain: EPKSSDKTHTCPPCPAPELLGGPSVFLFPPKPKDTLMISRTPEVTCVVVDVSHEDPEVKFNWYVDGVEVHNAKTKPREEQYNSTYRVVSVLTVLHQDWLNGKEYKCKVSNKALPAPIEKTISKAKGQPREPQVCTLPPSRDELTKNQVSLWCLVKGFYPSDIAVEWESNGQPENNYKTTPPVLDSDGSFFLYSKLTVDKSRWQQGNVFSCSVMHEALHNRYTQKSLSLSP
light: DIVMTQSPLSLPVTPGEPASISCRSSQSLVHSNRNTYLHWYQQKPGQAPRLLIYKVSNRFSGVPDRFSGSGSGTDFTLKISRVEAEDVGVYYCGQGTQVPYTFGQGTKLEIKRTVAAPSVFIFPPSDEQLKSGTASVVCLLNNFYPREAKVQWKVDNALQSGNSQESVTEQDSKDSTYSLSSTLTLSKADYEKHKVYACEVTHQGLSSPVTKSFNRGEC
notes: one-arm antibody
B2: CE115HA000 S52cD one-arm antibody (antibody, human IgG1, kappa, L234A L235A, N297A, name in Kabat numbering)
heavy: B1 heavy with Q31N, S55D
chain: B1 chain
light: B1 light
notes: one-arm antibody
B3: CE115HA000 N53K one-arm antibody (antibody, human IgG1, kappa, L234A L235A, N297A, name in Kabat numbering)
heavy: B1 heavy with Q31N, N56K
chain: B1 chain
light: B1 light
notes: one-arm antibody
B4: CE115HA000 S52cF one-arm antibody (antibody, human IgG1, kappa, L234A L235A, N297A, name in Kabat numbering)
heavy: B1 heavy with Q31N, S55F
chain: B1 chain
light: B1 light
notes: one-arm antibody
B5: CE115HA000 S52cA one-arm antibody (antibody, human IgG1, kappa, L234A L235A, N297A, name in Kabat numbering)
heavy: B1 heavy with Q31N, S55A
chain: B1 chain
light: B1 light
notes: one-arm antibody
B6: CE115HA000 S30G one-arm antibody (antibody, human IgG1, kappa, L234A L235A, N297A, name in Kabat numbering)
heavy: B1 heavy with S30G, Q31N
chain: B1 chain
light: B1 light
notes: one-arm antibody
B7: CE115HA000 N31Y one-arm antibody (antibody, human IgG1, kappa, L234A L235A, N297A, name in Kabat numbering)
heavy: B1 heavy with Q31Y
chain: B1 chain
light: B1 light
notes: one-arm antibody
B8: CE115HA000 R16Q one-arm antibody (antibody, human IgG1, kappa, L234A L235A, N297A, name in Kabat numbering)
heavy: B1 heavy with R16Q, Q31N
chain: B1 chain
light: B1 light
notes: one-arm antibody
B9: CE115HA000 N54A one-arm antibody (antibody, human IgG1, kappa, L234A L235A, N297A, name in Kabat numbering)
heavy: B1 heavy with Q31N, N57A
chain: B1 chain
light: B1 light
notes: one-arm antibody
B10: CE115HA000 N54G one-arm antibody (antibody, human IgG1, kappa, L234A L235A, N297A, name in Kabat numbering)
heavy: B1 heavy with Q31N, N57G
chain: B1 chain
light: B1 light
notes: one-arm antibody
B11: CE115HA000 Q50D one-arm antibody (antibody, human IgG1, kappa, L234A L235A, N297A, name in Kabat numbering)
heavy: B1 heavy with Q31N, Q50D
chain: B1 chain
light: B1 light
notes: one-arm antibody
B12: CE115HA000 N31R one-arm antibody (antibody, human IgG1, kappa, L234A L235A, N297A, name in Kabat numbering)
heavy: B1 heavy with Q31R
chain: B1 chain
light: B1 light
notes: one-arm antibody
B13: CE115HA000 N53G one-arm antibody (antibody, human IgG1, kappa, L234A L235A, N297A, name in Kabat numbering)
heavy: B1 heavy with Q31N, N56G
chain: B1 chain
light: B1 light
notes: one-arm antibody
B14: CE115HA000 N31S one-arm antibody (antibody, human IgG1, kappa, L234A L235A, N297A, name in Kabat numbering)
heavy: B1 heavy with Q31S
chain: B1 chain
light: B1 light
notes: one-arm antibody
B15: CE115HA000 Q50K one-arm antibody (antibody, human IgG1, kappa, L234A L235A, N297A, name in Kabat numbering)
heavy: B1 heavy with Q31N, Q50K
chain: B1 chain
light: B1 light
notes: one-arm antibody
B16: CE115HA000 R16E one-arm antibody (antibody, human IgG1, kappa, L234A L235A, N297A, name in Kabat numbering)
heavy: B1 heavy with R16E, Q31N
chain: B1 chain
light: B1 light
notes: one-arm antibody
B17: CE115HA000 N53A one-arm antibody (antibody, human IgG1, kappa, L234A L235A, N297A, name in Kabat numbering)
heavy: B1 heavy with Q31N, N56A
chain: B1 chain
light: B1 light
notes: one-arm antibody
B18: CE115HA000 S30D one-arm antibody (antibody, human IgG1, kappa, L234A L235A, N297A, name in Kabat numbering)
heavy: B1 heavy with S30D, Q31N
chain: B1 chain
light: B1 light
notes: one-arm antibody
B19: CE115HA000 Q50I one-arm antibody (antibody, human IgG1, kappa, L234A L235A, N297A, name in Kabat numbering)
heavy: B1 heavy with Q31N, Q50I
chain: B1 chain
light: B1 light
notes: one-arm antibody
B20: CE115HA000 Q50Y one-arm antibody (antibody, human IgG1, kappa, L234A L235A, N297A, name in Kabat numbering)
heavy: B1 heavy with Q31N, Q50Y
chain: B1 chain
light: B1 light
notes: one-arm antibody
B21: CE115HA000 N53I one-arm antibody (antibody, human IgG1, kappa, L234A L235A, N297A, name in Kabat numbering)
heavy: B1 heavy with Q31N, N56I
chain: B1 chain
light: B1 light
notes: one-arm antibody
B22: CE115HA000 N53H one-arm antibody (antibody, human IgG1, kappa, L234A L235A, N297A, name in Kabat numbering)
heavy: B1 heavy with Q31N, N56H
chain: B1 chain
light: B1 light
notes: one-arm antibody
B23: CE115HA000 N31W one-arm antibody (antibody, human IgG1, kappa, L234A L235A, N297A, name in Kabat numbering)
heavy: B1 heavy with Q31W
chain: B1 chain
light: B1 light
notes: one-arm antibody
B24: CE115HA000 N54K one-arm antibody (antibody, human IgG1, kappa, L234A L235A, N297A, name in Kabat numbering)
heavy: B1 heavy with Q31N, N57K
chain: B1 chain
light: B1 light
notes: one-arm antibody
B25: CE115HA000 N53D one-arm antibody (antibody, human IgG1, kappa, L234A L235A, N297A, name in Kabat numbering)
heavy: B1 heavy with Q31N, N56D
chain: B1 chain
light: B1 light
notes: one-arm antibody
B26: CE115HA000 Q50S one-arm antibody (antibody, human IgG1, kappa, L234A L235A, N297A, name in Kabat numbering)
heavy: B1 heavy with Q31N, Q50S
chain: B1 chain
light: B1 light
notes: one-arm antibody
B27: CE115HA000 N54F one-arm antibody (antibody, human IgG1, kappa, L234A L235A, N297A, name in Kabat numbering)
heavy: B1 heavy with Q31N, N57F
chain: B1 chain
light: B1 light
notes: one-arm antibody
B28: CE115HA000 N54D one-arm antibody (antibody, human IgG1, kappa, L234A L235A, N297A, name in Kabat numbering)
heavy: B1 heavy with Q31N, N57D
chain: B1 chain
light: B1 light
notes: one-arm antibody
B29: CE115HA000 Q50E one-arm antibody (antibody, human IgG1, kappa, L234A L235A, N297A, name in Kabat numbering)
heavy: B1 heavy with Q31N, Q50E
chain: B1 chain
light: B1 light
notes: one-arm antibody
B30: CE115HA000 Q50A one-arm antibody (antibody, human IgG1, kappa, L234A L235A, N297A, name in Kabat numbering)
heavy: B1 heavy with Q31N, Q50A
chain: B1 chain
light: B1 light
notes: one-arm antibody
B31: CE115HA000 Q50L one-arm antibody (antibody, human IgG1, kappa, L234A L235A, N297A, name in Kabat numbering)
heavy: B1 heavy with Q31N, Q50L
chain: B1 chain
light: B1 light
notes: one-arm antibody
B32: CE115HA000 R19T one-arm antibody (antibody, human IgG1, kappa, L234A L235A, N297A, name in Kabat numbering)
heavy: B1 heavy with R19T, Q31N
chain: B1 chain
light: B1 light
notes: one-arm antibody

The binders below were run against T1, CD3 epsilon homodimer protein (UniProt P07766 23-126) (assay: SPR Biacore T200, antibody over immobilised CD3e homodimer;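 further: CD3 epsilon homodimer amine-coupled on a CM4 chip, run at 25 °C in HBS-EP+, Z = bound amount of each single-residue H chain variant over that of the parent antibody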).
T1 construct: also called CD3 (CD3 epsilon)
T1 sequence (P07766 23-126): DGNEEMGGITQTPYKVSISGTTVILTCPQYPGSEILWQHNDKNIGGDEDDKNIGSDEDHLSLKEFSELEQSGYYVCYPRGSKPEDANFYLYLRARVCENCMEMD
For B1, the “ratio of amounts bound (Z=Y/X vs CE115HA000)” value (from here on “ratio of amounts bound”) was 0.49. For B2, the “ratio of amounts bound” value was 0.6. With B3 the “ratio of amounts bound” value was 0.78. In the case of B4, the “ratio of amounts bound” value is reported as 1.13. B5 was tested, and the “ratio of amounts bound” value was 0.96. With B6 the “ratio of amounts bound” value was 1.01. With B7 the “ratio of amounts bound” value was 0.64. With B8 the “ratio of amounts bound” value was 0.9. B9 was tested, and the “ratio of amounts bound” value was 0.85. In the case of B10, the “ratio of amounts bound” value is reported as 0.98. B11 was tested, and the “ratio of amounts bound” value was 0.27. B12 was tested, and the “ratio of amounts bound” value was 1.14. B13 was tested, and the “ratio of amounts bound” value was 0.5. For B14, the “ratio of amounts bound” value was 0.81. For B15, the “ratio of amounts bound” value was 0.33. B16 was tested, and the “ratio of amounts bound” value was 0.88. In the case of B17, the “ratio of amounts bound” value is reported as 0.7. For B18, the “ratio of amounts bound” value was 0.86. In the case of B19, the “ratio of amounts bound” value is reported as 0.4. With B20 the “ratio of amounts bound” value was 0.25. B21 was tested, and the “ratio of amounts bound” value was 0.68. In the case of B22, the “ratio of amounts bound” value is reported as 0.76. B23 was tested, and the “ratio of amounts bound” value was 0.63. In the case of B24, the “ratio of amounts bound” value is reported as 1.2. B25 was tested, and the “ratio of amounts bound” value was 0.39. With B26 the “ratio of amounts bound” value was 0.24. In the case of B27, the “ratio of amounts bound” value is reported as 1.12. B28 was tested, and the “ratio of amounts bound” value was 0.62. For B29, the “ratio of amounts bound” value was 0.26. With B30 the “ratio of amounts bound” value was 0.24. In the case of B31, the “ratio of amounts bound” value is reported as 0.23. B32 was tested, and the “ratio of amounts bound” value was 0.8.
